Measurements as given in patent publication US12331106B2, “Anti-angiopoietin-2 antibodies that induce Tie2 activation” (Institute for Basic Science, priority 2018, dated 2025).

Legend:
[1] = system: choroidal neovascularization (CNV); experiment: Laser-induced CNV model, intravitreal injection: CNV regression and vascular leakage; type: in vivo, mice; conditions: 5 μg intravitreal at 7 days
Procedure: 2C8H11 antibody was tested for its ability to inhibit choroidal neovascularization (CNV), the hallmark of wet age-related macular degeneration (AMD) using laser-induced CNV model. After dilation of pupils with 5 mg/ml phenylephrine and 5 mg/ml tropicamide eye drops (Santen Pharmaceutical) and instillation of 0.5% proparacaine hydrochloride eye drops (Alcon) for topical anesthesia, laser photocoagulator (Lumenis Inc.) with a slit lamp delivery system was used with a glass coverslip as a contact lens to visualize the retina. Sufficient laser energy (532 nm wavelength, 250 mW power, 100 ms duration, 50 μm spot size) was delivered in 4 locations for each eye (the 3, 6, 9 and 12 o'clock positions of the posterior pole). Only burns that produced a bubble at the time of laser photocoagulation, indicating the rupture of the Bruch's membrane, were included in this study. Spots containing hemorrhage at the laser site were excluded from the analysis. To recapitulate a clinical situation, 2C8H11 (5 μg) was administered intravitreally to the mice at 7 days after laser photocoagulation (FIG. 13A). As a control or as for comparison, Fc or VEGF-Trap (5 μg each) was administered in the same manner to the mice. To intravitreally administer indicated reagents, ˜1 μl (5 mg/ml) containing 5 μg of each reagent was injected into the vitreal cavity using the Nanoliter 2000 micro-injector (World Precision Instruments) fitted with a glass capillary pipette. CD31+CNV volumes of the retinal pigment epithelium (RPE)-choroid-sclera flat mounts were calculated using the MATLAB® Image Processing Toolbox™ (Math Works, a comprehensive set of reference-standard algorithms and workflow apps for image processing, analysis, visualization, and algorithm development) at 14 days after laser photocoagulation. Anti-CD31 antibody (1:200, Millipore®) was used for the detection of endothelial cells of CNV. […] Combined fluorescein angiography (FA) and indocyanine green angiography (ICGA) enabled us to measure vascular leakage at the neovessels around the laser injury site. Continuous-wave laser modules at 488 nm and 785 nm were used as excitation sources for fluorescein and ICG, respectively. A raster scanning pattern of excitation lasers was achieved by a scanner system consisting of a rotating polygonal mirror (MC-5; Lincoln Laser) and a galvanometer-based scanning mirror (6230H; Cambridge technology), and delivered to the back aperture of an imaging lens. A high numerical aperture (NA) objective lens (PlanApo λ, NA 0.75; Nikon) was used as the imaging lens to provide wide-field fundus fluorescence images. Fluorescence signals detected by photomultiplier tubes (R9110; Hamamatsu Photonics) were digitized by frame grabber and reconstructed to images with size of 512×512 pixels per frame in real time. To visualize late-phase (6 min) FA and ICGA images utilizing the angiography system, 10 mg of fluorescein sodium (Alcon) and 0.15 mg of ICG (Daiichi Pharmaceutical) were administered intraperitoneally and intravenously, respectively. The imaging procedure was performed under systemic anesthesia and pupil dilation to improve the quality of images. Leaky areas from CNV were calculated as the total measured hyperfluorescent areas in FA images divided by the total measured CNV areas in ICGA images using a Java-based imaging software (ImajeJ; National Institutes of Health). […] Thus, the magnitude of the suppression of CNV and vascular leakage was quantitatively indistinguishable between VEGF-Trap and 2C8H11 in the mouse model of laser-induced CNV.

[2] = system: LLC (Lewis Lung Carcinoma) tumor; experiment: Tumor growth inhibition in LLC subcutaneous model; type: in vivo, C57BL/6 mice; conditions: LLC s.c.; antibody 10 mg/kg i.p. every 2-3 days; Cpt 3 mg/kg i.p. once
Procedure: 2C8H11 anti-Ang2 antibody was tested for its ability to inhibit tumor growth in LLC (Lewis Lung Carcinoma) cell line tumor model. Specifically, LLC cell line (ATCC) was cultured in DMEM (GIBCO™) supplemented with 10% FBS (GIBCO™). LLC cells (1×10^6 in 100 μl of PBS) were subcutaneously injected into 6˜8-week-old C57BL/6 mice (Jackson Laboratory) which were anesthetized with a mixture of Ketamine and Xylazine. When the volume of the tumors reached 50˜100 mm^3, the mice were intraperitoneally administered with 10 mg/kg of 2C8H11 antibody every 2˜3 days. Cisplatin (Cpt) was injected intraperitoneally once at a dose of 3 mg/kg in both monotherapy and combination therapy groups. The changes in tumor volume was tracked over the following days. Tumor volume (V) was measured using the formula: V=(width^2×length)/2 V=(width^2×length)/2
The experiment was performed in 4 groups: Fc (control group), Fc+Cpt group, 2C8H11 group, and 2C8H11+Cpt group. […] Meanwhile, combined treatment with 2C8H11 and Cpt delayed tumor growth by 47% compared with Fc.

[3] = system: choroidal neovascularization (CNV); experiment: Laser-induced CNV model, subcutaneous injection: CNV inhibition; type: in vivo, mice; conditions: 25 mg/kg subcutaneous at 1 day; 8 days after laser photocoagulation
Procedure: To determine the effect of subcutaneously injected 2C8H11 antibody in CNV inhibition, the subcutaneous administration of 2C8H11 antibody (25 mg/kg) was performed at 1 day after laser photocoagulation. As a control, Fc (25 mg/kg) was administered in a same manner to the mice. Anti-CD31 antibody (1:200, Millipore®) was used for the detection of endothelial cells of CNV, and CD31+CNV volumes of the RPE-choroid-sclera flat mounts were calculated using the MATLAB® Image Processing Toolbox™(Math Works) at 8 days after laser photocoagulation (FIG. 16A).

B1: 2C8H11: humanized anti-Ang2 human IgG1 antibody from mouse 2C8; VH SEQ ID NO: 55, VL SEQ ID NO: 56 (antibody, V domains shown)
VH: QVQLVQSGAEVKKPGASVKVSCKASGYTFTSYWMHWVRQAPGQGLEWMGMIDPSDSETRLNQKFKDRVTMTRDTSTSTVYMELSSLRSEDTAVYYCARRFYYGSDWYFDVWGQGTLVTVSS
VL: DIQLTQSPSFLSASVGDRVTITCKASQDVGTAVAWYQQKPGKAPKLLIYWASTRHTGVPSRFSGSGSGTEFTLTISSLQPEDFATYYCQQYSSYPLTFGQGTKVEIK
modifications: human IgG1 constant regions; VH; VL
B1 was tested, and the “vascular leakage suppression compared with Fc” value ([1]; FA/ICGA, 14 days after laser photocoagulation) was 38.3%, the “CNV regression compared with Fc (CD31+ CNV volume)” value ([1]; measured 14 days after laser photocoagulation) was 65.3% and the “vascular leakage reduction between 6 and 14 days after laser photocoagulation” value ([1]; within-group) was 50.0%. For the same molecule, the “tumor growth inhibition compared with Fc” value [2] was 29% and the “inhibition of CNV formation compared with Fc (CD31+ CNV volume)” value [3] was 69.9%.
